Assay results as given in article PMC10578477, “Biochemical and genetic dissection of the RNA-binding surface of the FinO domain of Escherichia coli ProQ”.

Columns and labels:
[1] = target: T1, ProQ NTD WT (FinO domain) (Escherichia coli, UniProt P45577 1-130); assay: EMSA; settings: EMSA: 25 mM Tris pH 7.5, 150 mM NaCl, 5% glycerol, 1 mM MgCl2, 1 nM 32P-RNA, 30 min RT; microplates pretreated with 0.0025% BSA; 6% gel in 0.5x TBE at 4 C
T1 sequence: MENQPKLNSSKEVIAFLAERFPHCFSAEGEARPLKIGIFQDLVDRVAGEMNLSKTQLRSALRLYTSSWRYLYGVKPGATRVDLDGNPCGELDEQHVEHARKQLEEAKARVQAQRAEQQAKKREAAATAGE

[2] = target: T1, ProQ NTD WT (FinO domain); assay: EMSA; range for five RNAs; EMSA: 25 mM Tris pH 7.5, 150 mM NaCl, 5% glycerol, 1 mM MgCl2, 1 nM 32P-RNA, 30 min RT; microplates pretreated with 0.0025% BSA; 6% gel in 0.5x TBE at 4 C; settings: protein: recombinant; tags: His6-TEV removed, N-terminal Ser remains; label: 5'-32P; terminator hairpin, 8 U 3' tail
[3] = target: T1, ProQ NTD WT (FinO domain); assay: EMSA; EMSA: 25 mM Tris pH 7.5, 150 mM NaCl, 5% glycerol, 1 mM MgCl2, 1 nM 32P-RNA, 30 min RT; microplates pretreated with 0.0025% BSA; 6% gel in 0.5x TBE at 4 C; settings: protein: recombinant, tags: His6-TEV removed, N-terminal Ser remains, label: 5'-32P

## gapA-3'
[1]
  Kd: 14 nM

## RybB
[1]
  Kd: 26 nM

B1: cspE-3' (structured_RNA)
RNA: GUAAGAUACGUCAGCAAGAAUUCAAAACCCGCUUAAUCAGCGGGUUUUUUUU
[2]
  Kd: ~6.33 nM

## GGAAUUCGGAAGGCGCUUAAUCAGCGCCUUUUUUUU (structured_RNA) [cspE-mini]
[3]; hairpin with 5' and 3' single-stranded regions
  binding signal: ~1 fold weaker Kd than cspE-3'

## GGAAUUCGGAAGGCGCUUAAUCAGCGCCUUUUUU (structured_RNA) [cspE-mini-3'-6U]
[3]; hairpin, 6 U tail (2 predicted single-stranded)
  binding signal: ~2.5 fold weaker Kd than cspE-mini
